Results: patent US20130202591A1 (ANAPTYSBIO, published 2013)
Residue numbers refer to the chain shown, from its start.

B1: APE755-1574/773 (antibody, V domains shown)
VH: EVQLVESGGGLVQPGGSLRLSCAASGFTFSNHWMNWVRQTPGKGLEWVAAINEDGSEKYYVGSVKVRFTISRDNAKNSLYLQMNSLRVEDTAVYYCARDYYDILTRDYYDILTDYYIHYWYFDLWGRGTLVTVSS
VL: not shown
notes: Human IgG (detected with anti-human IgG)
B2: APE857-1622/773 (antibody, V domains shown)
VH: B1 VH with A97V
VL: not shown
notes: as for B1
B3: 546/773 (antibody, V domains shown)
VH: EVQLVESGGGLVQPGGSLRLSCAASGFTFSSYWMSWVRQAPGKGLEWVANIKQDGSEKYYVDSVKGRFTISRDNAKNSLYLQMNSLRAEDTAVYYCARDYYDILTDYYIHYWYFDLWGRGTLVTVSS
VL: not shown
notes: IgG captured by anti-human Fc; also called Well 9
B4: 887/841 (antibody, V domains shown)
VH: B3 VH with S31D, S35D, N50S, K52R, Q53E
VL: DIQMTQSPSSLSASVGDRVTITCRASQSISSYLNWYQQKPGKAPKLLIYAASSLQSGVPSRFSGSGSGTDFTLTISSLQPEDFAVYYCQQYGSSPLTFGGGTKVEIKR
notes: Captured by anti-human Fc
B5: APE320-847/773 (antibody, V domains shown)
VH: B3 VH with Y32H, N50S, Q53E
VL: not shown
notes: as for B1
B6: APE498-1330/773 (antibody, V domains shown)
VH: EVQLVESGGGLVQPGGSLRLSCAASGFTFSNHWMNWVRQTPGKGLEWVAAINEDGSEKYYVGSVKVRFTISRDNAKNSLYLQMNSLRVEDTAVYYCTRDYYDILTDYYIHYWYFDLWGRGTLVTVSS
VL: not shown
notes: as for B1
B7: 843/773 (antibody, V domains shown)
VH: B6 VH with H32Y, T40A, A50S, E53Q, V66G, T97V
VL: not shown
notes: IgG captured by anti-human Fc; also called Well 14
B8: APE265-817/773 (antibody, V domains shown)
VH: B6 VH with T40A, V66G, T97A
VL: not shown
notes: also called Well 11
B9: APE319-887/773 (antibody, V domains shown)
VH: B3 VH with S31D, S35D, N50S, K52R, Q53E
VL: not shown
notes: as for B1
B10: antibody with heavy chain SEQ ID NO: 30 and light chain SEQ ID NO: 25 (antibody, V domains shown)
VH: B6 VH with H32Y, T40A, E53Q, V66G, T97V
VL: not shown
notes: IgG captured by anti-human Fc; also called Well 15
B11: antibody with heavy chain SEQ ID NO: 9 and light chain SEQ ID NO: 29 (antibody, V domains shown)
VH: B6 VH with H32Y, T40A, A50S, E53Q, V66G, T97V
VL: not shown
notes: IgG captured by anti-human Fc; also called Well 7
B12: APE467-1138/773 (antibody, V domains shown)
VH: B3 VH with Y32H, A40T, N50S, Q53E, G66V
VL: not shown
notes: as for B1
B13: APE545-1346/773 (antibody, V domains shown)
VH: B6 VH with N31S, N35S, A50S, N52K, T69I, T97A
VL: not shown
notes: as for B1
B14: APE253-771/773 (antibody, V domains shown)
VH: B3 VH with Y32H, Q53E
VL: not shown
notes: Human IgG; also called Well 10
B15: APE499-1332/773 (antibody, V domains shown)
VH: B6 VH with T69I, T97A
VL: not shown
notes: as for B1
B16: APE744-1266/1540 (antibody, V domains shown)
VH: B6 VH with T97V
VL: not shown
notes: as for B1
B17: antibody with heavy chain SEQ ID NO: 6 and light chain SEQ ID NO: 27 (antibody, V domains shown)
VH: B3 VH with N50S
VL: not shown
notes: IgG captured by anti-human Fc; also called Well 20
B18: APE860-1723/773 (antibody, V domains shown)
VH: B6 VH with S30N, T97V
VL: not shown
notes: as for B1
B19: APE508-1266/773 (antibody, V domains shown)
VH: B6 VH with T97V
VL: not shown
notes: as for B1
B20: APE470-1150/773 (antibody, V domains shown)
VH: B3 VH with S31D, Y32F, S35D, Q53E
VL: not shown
notes: as for B1
B21: APE490-1263/773 (antibody, V domains shown)
VH: B6 VH with N31D, H32F, N35D, A50S, N52K, T97A
VL: not shown
notes: as for B1
B22: APE422-1141/773 (antibody, V domains shown)
VH: B6 VH with T97A
VL: not shown
notes: as for B1
B23: APE480-1261/773 (antibody, V domains shown)
VH: B3 VH with S31D, Y32F, S35D, A40T, N50S, Q53E, G66V
VL: not shown
notes: as for B1
B24: antibody with heavy chain SEQ ID NO: 30 and light chain SEQ ID NO: 24 (antibody, V domains shown)
VH: B6 VH with H32Y, T40A, E53Q, V66G, T97V
VL: not shown
notes: IgG captured by anti-human Fc; also called Well 8
B25: antibody with heavy chain SEQ ID NO: 1 and light chain SEQ ID NO: 29 (antibody, V domains shown)
VH: B3 VH
VL: not shown
notes: IgG captured by anti-human Fc; also called Well 2
B26: APE318-878/773 (antibody, V domains shown)
VH: B3 VH with S31D, S35D, K52R, Q53E
VL: not shown
notes: as for B1
B27: 878/842 (antibody, V domains shown)
VH: B3 VH with S31D, S35D, K52R, Q53E
VL: not shown
notes: Captured by anti-human Fc
B28: antibody with heavy chain SEQ ID NO: 4 and light chain SEQ ID NO: 29 (antibody, V domains shown)
VH: B6 VH with T40A, V66G, T97A
VL: not shown
notes: IgG captured by anti-human Fc; also called Well 4
B29: antibody with heavy chain SEQ ID NO: 2 and light chain SEQ ID NO: 29 (antibody, V domains shown)
VH: B3 VH with Y32H, Q53E
VL: not shown
notes: IgG captured by anti-human Fc; also called Well 3
B30: APE321-844/773 (antibody, V domains shown)
VH: B3 VH with N50S
VL: not shown
notes: Human IgG; also called Well 12

What was measured:
human IL-17 [1] = target: T1, human IL-17 (human, UniProt Q16552 24-155); assay: Average KINEXA values
T1 construct: also called hIL-17; IL-17A

human IL-17 [2] = target: T1, human IL-17; assay: KINEXA 3000, solution equilibrium, free antibody captured on human IL-17a beads
human IL-17 [3] = target: T1, human IL-17; assay: cell-based or functional assay
[4] = target: T2, human Myc-IL-17a (APE280) (human, UniProt Q16552 24-155, limits assumed); assay: cell-based or functional assay
[5] = target: T2, human Myc-IL-17a (APE280); assay: competition ELISA: plate coated with myc-IL-17a (APE280), antibody titrated against biotinylated IL-17RA (sheet: 2.1 nM, overnight incubation), bound IL-17RA detected with avidin-HRP, OD450 as % of no antibody
[6] = target: T2, human Myc-IL-17a (APE280); assay: competition ELISA, plate-coated myc-IL-17a, biotinylated IL-17RA as competitor, IC50 comparison
human IL-17 [7] = target: T1, human IL-17; assay: SPR (BIACORE A100), IgG from transfection supernatant captured by anti-human Fc on CM5 chip, human IL-17 flowed over; 1:1 model with mass transport
human IL-17 [8] = target: T1, human IL-17; assay: SPR (BIACORE), antibody captured by anti-human Fc, antigen in flow; grade: ++ strong binding, + binding, +/- close to background;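 note: antigen injected at two-fold dilutions from 50 nM over captured antibody at 30 µL/min, dissociation followed for 10 min, kinetics fitted with a 1:1 mass-transport model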
[9] = target: T3, IL-17 antigen (APE349) linked to wasabi fluorescent protein (WFP) (labeled with Eu3+-TBP-NHS Cryptate); assay: HTRF competition against the labelled second reference antibody
T3 construct: also called labeled antigen

| Binder | Kd (human IL-17 [2]) | Kd (human IL-17 [7]) | also measured |
| --- | --- | --- | --- |
| B1 | 0.0049 nM | – | koff (human IL-17 [1]): 5.9e-06 s⁻¹; kon (human IL-17 [1]): 1.2e+06 M⁻¹ s⁻¹; IL-6 and IL-8 release from IL-17-stimulated primary human RA synovial fibroblasts, potency against the reference anti-IL-17a antibodies (human IL-17 [3]): 5 fold; IL-8 release from human IL-17-stimulated cell lines, potency against the first reference anti-IL17a antibody [4]: 2 fold; IC50 [5]: 0.34 nM; fold potency in blocking IL-17/IL-17RA interaction against the first reference anti-IL-17a antibody [6]: 40 fold |
| B2 | 0.0048 nM | – | – |
| B3 | – | > 10 nM | – |
| B4 | – | – | binding result (human IL-17 [8]): binds |
| B5 | 2.5 nM | – | – |
| B6 | 0.126 nM | – | – |
| B7 | – | < 1 nM | – |
| B8 | 0.322 nM | < 1 nM | – |
| B9 | 6.1 nM | – | – |
| B10 | – | < 1 nM | – |
| B11 | – | > 10 nM | – |
| B12 | 0.374 nM | – | – |
| B13 | 0.27 nM | – | – |
| B14 | ~60 nM | – | – |
| B15 | 0.092 nM | – | – |
| B16 | 0.875 nM | – | – |
| B17 | – | > 10 nM | – |
| B18 | 0.049 nM | – | – |
| B19 | 0.043 nM | – | koff (human IL-17 [1]): 1.8e-05 s⁻¹; kon (human IL-17 [1]): 418000 M⁻¹ s⁻¹; binding result [9]: binds; IC50 [5]: 1.6 nM |
| B20 | 6.9 nM | – | – |
| B21 | 0.948 nM | – | – |
| B22 | 0.067 nM | – | koff (human IL-17 [1]): 2.4e-05 s⁻¹; kon (human IL-17 [1]): 360000 M⁻¹ s⁻¹ |
| B23 | 1.2 nM | – | – |
| B24 | – | < 1 nM | – |
| B25 | – | > 10 nM | – |
| B26 | 14.2 nM | – | – |
| B27 | – | – | binding result (human IL-17 [8]): binds |
| B28 | – | < 1 nM | – |
| B29 | – | > 10 nM | – |
| B30 | 9.4 nM | < 1 nM | – |
